The nature of data set [1]: ELISA binding to anionic phospholipids in 5 mM EDTA (Ca2+ requirement). Here is the method:
The specificity of the 9D2 antibody binding was validated by using control rat IgM of irrelevant specificity (Pharmingen, San Diego, Calif.). The specificity of annexin V binding to phospholipids, which is Ca^2+-dependent, was determined by diluting the reagent in the DPBS containing 5 mM EDTA. Additional negative controls consisted of washing the plates with the binding buffer containing 0.2% of a detergent Tween 20. This treatment extracts lipids, thus removing the phospholipid that was absorbed to plastic. Neither 9D2 antibody nor annexin V bound to detergent-washed plates.
Background: ELISA stands for enzyme-linked immunosorbent assay.

In another data set the test system is Meth A fibrosarcoma. The data set is described as follows: 3G4 tumor treatment. In kind it is in vivo, mouse. Here is the method:
(§1) In the subcutaneous model, mice are typically injected with 1×10^7 cells in 0.2 ml. Mice are not anesthetized, but are restrained using a steady grip of mouse skin exposing the right flank. A 1 ml syringe with a 23 gauge needle is used to inject 1×10^7 cells in 200 μl, just under the skin of the mice and a bleb will be seen. It is not unusual to observe a small amount of fluid leak from the injection site. A twisting motion may be used when withdrawing the needle from the subcutaneous injection to reduce this leakage. Tumor volume is measured by L×W×H.
(§2) Treatment was repeated 3 times a week. Animals were monitored twice a week for tumor measurements.

In data set [2] the test system is L540 human Hodgkin's lymphoma. The data set is described as follows: 3G4 tumor treatment. The format is in vivo, mice. The note with it: subcutaneous L540 xenografts. As for the experimental part:
as §1, §2

The test system of the next data set is apoptotic tumor cells. Nature of the data set: Dendritic cell uptake of apoptotic tumor cells. In kind it is cell-based. The note with it: Fc(γ)R mediated internalization of 3G4-ATC complexes.
The conditions of data set [3]: monkey, in vivo.

B1: 3G4: mouse IgG3 kappa monoclonal antibody binding PS and other anionic phospholipids; hybridoma ATCC PTA 4545 (antibody, V domains shown)
VH: EVQLQQSGPELEKPGASVKLSCKASGYSFTGYNMNWVKQSHGKSLEWIGHIDPYYGDTSYNQKFRGKATLTVDKSSSTAYMQLKSLTSEDSAVYYCVKGGYYGHWYFDVWGAGTTVTVSSATTTAPSVYPLVP
VL: DIQMTQSPSSLSASLGERVSLTCRASQDIGSSLNWLQQGPDGTIKRLIYATSSLDSGVPKRFSGSRSGSDYSLTISSLESEDFVDYYCLQYVSSPPTFGAGTKLELKRADAAPTVFIFGRIP
In the case of B1, the “binding to anionic phospholipids in the presence of 5 mM EDTA” value in data set [1] is “unaffected by the presence of 5 mM EDTA”. Further, in the data set with Meth A fibrosarcoma (Meth A-bearing mice), the “mice with long-term complete remissions” value was determined as 50%. For the same molecule, the growth retardation in the data set on Meth A fibrosarcoma (syngeneic Meth A) amounted to 90%; in data set [2], 65%. In addition, the “enhancement of DC uptake of apoptotic tumor cells” value with apoptotic tumor cells was determined as 300%. For the same molecule, the side effects entry in data set [3] is given as “no side effects have been observed”.

The values above are taken from patent publication US20040175378A1, “Selected antibody compositions and methods for binding to aminophospholipids” (Board of Regents, The University of Texas System, priority 2002, published 2004).
